Assay results reported in patent publication US11472844B2, “Peptidomimetics, method of synthesis and uses thereof” (priority 2017, dated 2022).
Read-outs that look alike come from different tables or passages of the source.

What was measured:
human colonic mucus = test: Fluorescent labelling of human colonic mucus layer; format: binding; details: 1 μg/mL
Protocol: (§1) Colon explant surgical collection. In summary, human colon segments (ascending, descending, and sigmoid colon) were obtained from fully informed patients undergoing surgery for colon carcinoma and were analyzed anonymously. Patient written consent was obtained, according to the French bioethics law. None of the patients had undergone radiotherapy or chemotherapy. According to the pathologist's examination rules for the longitudinally bisected colon, a healthy segment of tissue, which was distant from the tumor region and devoid of metastatic cells, was removed. Tissues were processed according to the French Government guidelines for research on human tissues and the French Bioethics Act with the authorization no RBM 2009-50.
Fixation and staining procedures. For microscopy studies, purified or cultured cells and polymerized lactoferrin were resuspended onto 24-well plates containing 12 mm coverslips in RMPI 1640+10 mM Hepes (when cultured in the autologous plasma) and centrifuged at 300×g for 10 min. Culture media were removed and cells were fixed in 4% Paraformaldehyde (PFA) for two hours. Fixed cells were washed three times in PBS+0.1% saponin (Sigma-Aldrich), prior immunolabeling with primary antibodies in the same buffer for 1 hour (Triton 0.1% can alternatively be used for cell permeabilization). After three additional washes in PBS+0.1% saponin, secondary antibodies and fluorescent markers were incubated for one hour. […]
(§2) Antibodies, fluorescent markers. For immunofluorescence assay, lactoferrin was detected with a mouse anti-lactoferrin primary monoclonal antibody (Hycult biotech, clone 265-1K1, 1:50 dilution) and an anti-mouse-FITC conjugated secondary antibody (1:1000). Nuclei were detected with DAPI (Life Technologies), Lyophilized MUB40 peptides (MUB40#1 (SEQ ID NO: 3)-Cy5, MUB40#2 (SEQ ID NO: 4)-Cy5, MUB40#3 (SEQ ID NO: 5)-Cy5, MUB40#4 (SEQ ID NO: 6)-Cy5, MUB40#1 (SEQ ID NO: 3)-Dylight, RI-MUB40 (SEQ ID NO: 2)-Cy5, and RI-MUB40 (SEQ ID NO: 2)-Biotin) were solubilized in a phosphate buffer pH8 at a 1 mg/mL concentration and used at a 1:1000 dilution. […]

living human neutrophils = test: Live microscopy of neutrophils infected with Shigella flexneri; format: cell-based; details: live cells
Protocol: Neutrophil infection. Human purified neutrophils were cultured in glass-bottom dishes (Mattek) for live fluorescent microscopy in a RMPI 1640 (Life Technologies) culture medium supplemented with 10% of heat inactivated Human Serum (Sigma-Aldrich). Neutrophils (5.10^5 cell/mL in 2 mL) were infected with exponentially-grown Shigella flexneri 5a pGFP at a Multiplicity Of Infection (MOI) 20 in RMPI 1640 (Life Technologies) culture medium supplemented with 10 mM Hepes (Life Technologies) at 37° C. Infected neutrophils were centrifuged at 2000 rpm for 10 min prior imaging.
Live epifluorescence microscopy. Viable neutrophils infected with S. flexneri pGFP were imaged on a Definite focus live microscope (Zeiss) equipped with a temperature control chamber (37° C.) and a 63× oil immersion objective. Images were acquired every 60 s. Z-stack images were taken with […] step-size increments. Obtained Z-stack images were processed with Fiji software to generate a Movie and the corresponding extracted images are shown in FIG. 16a.

trypsin = trypsin (Sus scrofa, UniProt P00761); details: trypsin digestion, 37°C, pH8, followed up to 24 h
Sequence of trypsin (P00761 9-231): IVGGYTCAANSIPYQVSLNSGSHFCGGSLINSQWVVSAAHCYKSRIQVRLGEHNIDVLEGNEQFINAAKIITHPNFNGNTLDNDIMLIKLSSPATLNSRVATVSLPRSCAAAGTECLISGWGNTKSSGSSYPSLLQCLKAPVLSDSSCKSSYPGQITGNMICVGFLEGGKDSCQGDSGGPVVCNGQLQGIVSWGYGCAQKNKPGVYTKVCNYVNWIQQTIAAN
Protocol: Trypsin proteolysis. MUB40 (SEQ ID NO: 3)-Cy5 and RI-MUB40 (SEQ ID NO: 2)-Cy5 were dissolved in 50 mM ammonium bicarbonate, pH 8. Prior to digestion and owing to the propensity of maleimide derivatives to undergo ring-opening in a basic environment (Fontaine et al., 2015), we incubated both peptides at 37° C. overnight. Ring-opening completion was checked before trypsin addition. […] Lyophilized trypsin (Thermo scientific) was reconstituted using 50 mM acetic acid, diluted with 50 mM ammonium bicarbonate and added to the peptide solution so as to obtain a final peptide concentration of 0.25 mg/mL and a protease to protein ratio of 1:20 (w/w). Samples were directly incubated on the injection sampler thermostated at 37° c. HPLC and LC-MS analyses were performed as previously described above, applying a 15% to 40% linear gradient of acetonitrile in 10 mM ammonium acetate over 20 minutes.
Hydrolysis experiments were done in solution at 37° c., pH8 and monitored by HPLC by measuring the peak area of the remaining intact peptides.

[1] = test system: colonic mucinous carcinoma; test: Mucinous carcinoma immunofluorescent staining; design: species or system human; details: together with anti-Muc2 antibody, 1 μg/mL
Protocol: FIG. 3. Mucinous carcinoma immunofluorescent staining with MUB40 #1 (SEQ ID NO: 3)-Cy5 (MUB40-Cy5) and anti-Muc2 antibody (with a secondary antibody conjugated with FITC).
Muc2 was stained with an anti-Mucin2 antibody (green). Tissue was additionally stained with MUB40-Cy5 (1 μg/mL, magenta). DNA was stained with Dapi (blue).

[2] = Analytical gel filtration (size exclusion chromatography); format: physicochemical
Protocol: Size Exclusion Chromatography. Gel filtration was performed using an Agilent 1100 system (Agilent Technologies; Palo Alto, Calif., USA) and monitored by absorbance at 280 nm. MUB40 peptides were solubilized in the gel filtration buffer (20 mM phosphate buffer, 150 mM NaCl, pH7.4) at a concentration of 10 μg/ml, 100 μg/ml, or 1 mg/ml), separately injected on a Yarra™ 3μ SEC-2000 300×7.8 mm column (Phenomenex, Le Pecq, France), and eluted at a 0.5 ml/min flow rate. The column was calibrated with a mixture of standards proteins (ribonuclease A, 13.7 kDa; carbonic anhydrase 29 kDa; ovalbumin 44 kDa; GE Healthcare) complemented with a custom synthetic peptide of our own library (peptide x, 5.1 kDa; Institut Pasteur). The logarithm of the molecular weights were plotted versus the corresponding partition coefficients (Kay=(Ve−Vo)/(Vc−Vo); Ve, elution volume; Vo, void volume; Vc, geometric column volume), giving log(Mr)=2,3108−2,2361Kav as a calibration curve equation.

[3] = test system: Colonic goblet cell granules; test: Fluorescent labelling of colonic goblet cell granules on fixed slides; format: cell-based, human; details: 1 μg/mL
Protocol: as §1, §2

[4] = Coïc et al., 2012; cited from earlier work

## CC[C@@H](C)[C@@H](NC(=O)[C@@H](CCCCN)NC(=O)[C@@H](CCCCN)NC(=O)[C@@H](Cc1ccccc1)NC(=O)[C@@H](CCC(=O)O)NC(=O)CNC(=O)[C@@H](CC(=O)O)NC(=O)CNC(=O)[C@@H](Cc1ccc(O)cc1)NC(=O)[C@@H](CCC(=O)O)NC(=O)[C@@H](CC(C)C)NC(=O)[C@@H](Cc1ccccc1)NC(=O)[C@@H](CCCCN)NC(=O)[C@@H](CC(=O)O)NC(=O)[C@@H](CC(N)=O)NC(=O)[C@@H](Cc1ccccc1)NC(=O)[C@H]1CCCN1C(=O)[C@@H](C)NC(=O)CNC(=O)[C@@H](CCC(=O)O)NC(=O)[C@@H](CCCCN)NC(=O)[C@@H](Cc1ccccc1)NC(=O)[C@@H](CC(=O)O)NC(=O)[C@@H](CC(N)=O)NC(=O)[C@@H](CC(=O)O)NC(=O)[C@@H](CC(=O)O)NC(=O)[C@H](NC(=O)[C@@H](CC(N)=O)NC(=O)[C@@H](CC(=O)O)NC(=O)[C@@H](CCC(N)=O)NC(=O)[C@@H](Cc1ccccc1)NC(=O)[C@@H](Cc1ccc(O)cc1)NC(=O)[C@H](NC(=O)[C@H](NC(=O)[C@H](NC(=O)[C@@H](Cc1ccccc1)NC(=O)[C@@H](CS)NC(C)=O)[C@H](C)CC)C(C)C)[C@H](C)O)[C@H](C)O)C(=O)NCC(=O)N[C@H](CCC(=O)O)C(=O)N[C@H](C)C(=O)N[C@@H](C(N)=O)[C@H](C)O [RI-MUB40]
Human colonic mucus
  labelling of / binding to human colonic mucus: validated
Living human neutrophils
  crossing of plasma membrane of living cells: do not cross plasma membranes

## MUB40#1: 40-amino acid L-peptide, MUB70 C-terminal part, with N-ter added cysteine; L counterpart of RI-MUB40 (CTAEGIKKFEGDGYELFKDNFPAGEKFDNDDTNDQFYTVIF; MUB40-1 probe with Cysteine at N-terminal extremity)
trypsin; listed as MUB40
  degradation by trypsin (in words): rapidly degraded
trypsin; listed as MUB40 #1
  degradation by trypsin (in words): almost completely degraded within 3 h
[1]
  labelling of colonic mucinous carcinoma: similarly labelled
[2]; 10 μg/ml in 20 mM phosphate buffer, 150 mM NaCl, pH7.4
  relative masses estimated from standard proteins' elution volume: 15.9
[2]; 20 mM phosphate buffer, 150 mM NaCl, pH7.4
  experimental Mr: 15.9 kDa
[2]; phosphate buffer, vs theoretical MW
  oligomeric organization: trimer

B1: MUB70-Cy5: MUB70 (SEQ ID NO: 11) conjugated to Cy5 (conjugate, listed as Lactobacillus reuteri)
chain: VHVQYIDGETDQMLRQDDLDGYTDETIPYSTAEGIKKFEGDGYELFKDNFPAGEKFDNDDTNDQFYTVIF
modifications: also: conjugated to Cy5 (site not given here)
[3]
  labelling of colonic goblet cell granules: not the case

B2: MUB70: 70 AA peptidic marker of human colonic mucus from L. reuteri MUcus Binding Associated Domains (peptide, listed as Lactobacillus reuteri)
chain: VHVQYIDGETDQMLRQDDLDGYTDETIPYSTAEGIKKFEGDGYELFKDNFPAGEKFDNDDTNDQFYTVIF
[4]
  oligomeric organization: trimer
